Source: patent US20050037969A1 (ARBOR VITA, published 2005)
Ends that are not written are not given here. * marks the point of attachment. Biotin = O=C1N[C@H]2[C@H](CS[C@H]2CCCCC(=O)*)N1

T1: GST-DLG5 (p-dlg) PDZ domain fusion protein (Human, UniProt Q8TDM6 1343-1583)
T1 construct: also called Human discs large protein p-dlg; not shown: glutathione S-transferase encoded by vector pGEX-3X (Pharmacia)
T1 sequence: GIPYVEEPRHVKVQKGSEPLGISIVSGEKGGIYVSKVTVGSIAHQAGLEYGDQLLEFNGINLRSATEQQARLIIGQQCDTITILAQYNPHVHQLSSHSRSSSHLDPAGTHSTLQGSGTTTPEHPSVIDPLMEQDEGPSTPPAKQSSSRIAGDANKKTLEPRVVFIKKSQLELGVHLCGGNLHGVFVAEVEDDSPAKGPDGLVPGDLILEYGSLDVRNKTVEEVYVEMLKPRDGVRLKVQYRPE

T2: K559 PDZ-GST fusion protein (Homo sapiens (Human), UniProt Q9Y6V0 4489-4593)
T2 construct: Order of GST and PDZ part and limits not seen in the excerpts
T2 sequence: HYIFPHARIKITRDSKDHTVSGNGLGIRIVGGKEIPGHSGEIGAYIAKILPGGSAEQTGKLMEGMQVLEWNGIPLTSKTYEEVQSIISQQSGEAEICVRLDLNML

T3: GST-KIAA0303 PDZ domain fusion protein (Homo sapiens (Human), UniProt O15021 1138-1228)
T3 construct: also called K303; not shown: glutathione S-transferase encoded by vector pGEX-3X (Pharmacia)
T3 sequence: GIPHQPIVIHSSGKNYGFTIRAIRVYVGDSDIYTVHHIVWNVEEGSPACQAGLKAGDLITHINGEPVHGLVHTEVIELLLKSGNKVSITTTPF

T4: GST-DVL1 PDZ domain fusion protein (human, UniProt O14640 247-339)
T4 construct: also called human dishevelled segment polarity protein homolog; not shown: glutathione S-transferase encoded by vector pGEX-3X (Pharmacia)
T4 sequence: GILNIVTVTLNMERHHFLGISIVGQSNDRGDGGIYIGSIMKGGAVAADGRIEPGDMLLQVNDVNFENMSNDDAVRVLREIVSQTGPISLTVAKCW

T5: TAX-IP33 PDZ-GST fusion protein (Homo sapiens (Human), UniProt O14910 103-193)
T5 construct: Order of GST and PDZ part and limits not seen in the excerpts
T5 sequence: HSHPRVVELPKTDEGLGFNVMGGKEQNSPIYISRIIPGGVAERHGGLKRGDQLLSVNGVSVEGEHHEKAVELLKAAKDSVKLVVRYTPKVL

T6: GST-PDZK1 fusion protein (PDZ domains 2-4) (Homo sapiens, UniProt Q5T2W1 134-457)
T6 construct: not shown: glutathione S-transferase encoded by vector pGEX-3X (Pharmacia)
T6 sequence: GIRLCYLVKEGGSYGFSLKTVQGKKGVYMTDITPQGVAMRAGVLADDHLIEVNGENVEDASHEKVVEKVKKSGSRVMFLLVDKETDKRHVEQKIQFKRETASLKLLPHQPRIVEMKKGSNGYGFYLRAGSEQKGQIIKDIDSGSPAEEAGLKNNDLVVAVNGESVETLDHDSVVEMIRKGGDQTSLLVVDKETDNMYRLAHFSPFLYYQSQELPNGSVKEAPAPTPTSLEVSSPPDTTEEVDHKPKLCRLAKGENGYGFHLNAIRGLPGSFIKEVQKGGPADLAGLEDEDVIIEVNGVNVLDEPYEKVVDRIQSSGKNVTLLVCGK

T7: GEF PDZ-GST fusion protein (Homo sapiens (Human), UniProt Q8TEU7 293-400)
T7 construct: The label GEF is not explained in the excerpts
T7 sequence: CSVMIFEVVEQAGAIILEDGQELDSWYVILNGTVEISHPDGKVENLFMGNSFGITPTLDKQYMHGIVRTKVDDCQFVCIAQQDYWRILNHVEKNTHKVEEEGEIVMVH

T8: TAX-IP2L PDZ-GST fusion protein (Homo sapiens (Human), UniProt Q8TF64 107-197)
T8 construct: Order of GST and PDZ part and limits not seen in the excerpts
T8 sequence: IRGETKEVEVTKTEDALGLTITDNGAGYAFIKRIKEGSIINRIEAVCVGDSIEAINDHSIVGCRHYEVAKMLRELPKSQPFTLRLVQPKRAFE

T9: GST-LIM protein PDZ domain fusion protein (Human, UniProt Q96HC4 2-85)
T9 construct: also called Human LIM protein; not shown: glutathione S-transferase encoded by vector pGEX-3X (Pharmacia)
T9 sequence: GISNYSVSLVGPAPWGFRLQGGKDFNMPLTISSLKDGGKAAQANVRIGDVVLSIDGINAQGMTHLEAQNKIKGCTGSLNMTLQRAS

T10: GST-TAX-IP40 PDZ domain fusion protein (human, UniProt Q6B4M5 150-252 (rat entry))
T10 construct: also called TAX40; not shown: glutathione S-transferase encoded by vector pGEX-3X (Pharmacia)
T10 sequence: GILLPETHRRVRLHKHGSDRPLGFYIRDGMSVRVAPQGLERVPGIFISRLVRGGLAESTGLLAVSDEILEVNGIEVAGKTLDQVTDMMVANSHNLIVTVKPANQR

T11: MINT3 PDZ-GST fusion protein
T11 construct: Order of GST and PDZ part and limits not seen in the excerpts
T11 chain: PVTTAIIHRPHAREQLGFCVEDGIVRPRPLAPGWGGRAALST

T12: KIAA0807 (PDZ domain)-GST fusion protein (human, UniProt Q6P0Q8 1104-1192)
T12 construct: also called K807; KIAA807; not shown: glutathione S-transferase encoded by vector pGEX-3X (Pharmacia)
T12 sequence: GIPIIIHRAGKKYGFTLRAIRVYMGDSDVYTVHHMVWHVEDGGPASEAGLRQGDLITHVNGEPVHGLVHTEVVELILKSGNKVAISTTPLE

B1: CD5 C-terminal peptide AA49L (peptide)
peptide: Biotin-SMQPDNSSDSDYDLHGAQRL
notes: Only the last four residues are seen in the excerpts

target: T1, GST-DLG5 (p-dlg) PDZ domain fusion …; assay: A/G assays

binding result	Binder
no binding	Biotin-QGDPALQDAGDSSRKEYFI (also called GC) [Glycophorin C C-terminal peptide AA37L, biotinylated]
no binding	Biotin-SSKSKSSEESQTFFGLYKL (not fully specified, also called FasLigand; Fas ligand) [FasL C-terminal peptide AA23L-M, biotinylated]
no binding	B1
no binding	Biotin-QFMTADETRNLQNVDMKIGV (also called CD44 (long form)) [CD44 C-terminal peptide AA9L, biotinylated]

target: T2, K559 PDZ-GST fusion protein; assay: A/G assays

binding result	Binder
no binding	Biotin-QGDPALQDAGDSSRKEYFI (also called GC) [Glycophorin C C-terminal peptide AA37L, biotinylated]
no binding	Biotin-SSKSKSSEESQTFFGLYKL (not fully specified, also called FasLigand; Fas ligand) [FasL C-terminal peptide AA23L-M, biotinylated]
no binding	B1
no binding	Biotin-QFMTADETRNLQNVDMKIGV (also called CD44 (long form)) [CD44 C-terminal peptide AA9L, biotinylated]

target: T3, GST-KIAA0303 PDZ domain fusion protein; assay: A/G assays

binding result	Binder
no binding	Biotin-QGDPALQDAGDSSRKEYFI (also called GC) [Glycophorin C C-terminal peptide AA37L, biotinylated]
no binding	Biotin-SSKSKSSEESQTFFGLYKL (not fully specified, also called FasLigand; Fas ligand) [FasL C-terminal peptide AA23L-M, biotinylated]
no binding	B1
no binding	Biotin-QFMTADETRNLQNVDMKIGV (also called CD44 (long form)) [CD44 C-terminal peptide AA9L, biotinylated]

target: T4, GST-DVL1 PDZ domain fusion protein; assay: A/G assays

binding result	Binder
no binding	Biotin-QGDPALQDAGDSSRKEYFI (also called GC) [Glycophorin C C-terminal peptide AA37L, biotinylated]
no binding	Biotin-SSKSKSSEESQTFFGLYKL (not fully specified, also called FasLigand; Fas ligand) [FasL C-terminal peptide AA23L-M, biotinylated]
no binding	B1
no binding	Biotin-QFMTADETRNLQNVDMKIGV (also called CD44 (long form)) [CD44 C-terminal peptide AA9L, biotinylated]

target: T5, TAX-IP33 PDZ-GST fusion protein; assay: A/G assays

binding result	Binder
no binding	Biotin-QGDPALQDAGDSSRKEYFI (also called GC) [Glycophorin C C-terminal peptide AA37L, biotinylated]
no binding	Biotin-SSKSKSSEESQTFFGLYKL (not fully specified, also called FasLigand; Fas ligand) [FasL C-terminal peptide AA23L-M, biotinylated]
no binding	B1
no binding	Biotin-QFMTADETRNLQNVDMKIGV (also called CD44 (long form)) [CD44 C-terminal peptide AA9L, biotinylated]

target: T6, GST-PDZK1 fusion protein (PDZ domains …); assay: A/G assays

binding result	Binder
no binding	Biotin-QGDPALQDAGDSSRKEYFI (also called GC) [Glycophorin C C-terminal peptide AA37L, biotinylated]
no binding	Biotin-SSKSKSSEESQTFFGLYKL (not fully specified, also called FasLigand; Fas ligand) [FasL C-terminal peptide AA23L-M, biotinylated]
no binding	B1
no binding	Biotin-QFMTADETRNLQNVDMKIGV (also called CD44 (long form)) [CD44 C-terminal peptide AA9L, biotinylated]

target: T7, GEF PDZ-GST fusion protein; assay: A/G assays

binding result	Binder
no binding	Biotin-QGDPALQDAGDSSRKEYFI (also called GC) [Glycophorin C C-terminal peptide AA37L, biotinylated]
no binding	Biotin-SSKSKSSEESQTFFGLYKL (not fully specified, also called FasLigand; Fas ligand) [FasL C-terminal peptide AA23L-M, biotinylated]
no binding	B1
no binding	Biotin-QFMTADETRNLQNVDMKIGV (also called CD44 (long form)) [CD44 C-terminal peptide AA9L, biotinylated]

target: T13, GST-TIAM1 PDZ domain fusion protein (Homo sapiens (Human), UniProt Q13009 845-931); assay: A/G assays
T13 construct: also called TLAM1; T-lymphoma invasion and metastasis inducing protein 1; not shown: glutathione S-transferase encoded by vector pGEX-3X (Pharmacia)
T13 sequence (Q13009 other isoform, or with tags, fused parts or gaps): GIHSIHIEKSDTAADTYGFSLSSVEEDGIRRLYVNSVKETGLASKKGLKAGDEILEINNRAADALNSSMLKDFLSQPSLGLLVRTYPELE

binding result	Binder
no binding	Biotin-QGDPALQDAGDSSRKEYFI (also called GC) [Glycophorin C C-terminal peptide AA37L, biotinylated]
no binding	Biotin-SSKSKSSEESQTFFGLYKL (not fully specified, also called FasLigand; Fas ligand) [FasL C-terminal peptide AA23L-M, biotinylated]
no binding	B1
no binding	Biotin-QFMTADETRNLQNVDMKIGV (also called CD44 (long form)) [CD44 C-terminal peptide AA9L, biotinylated]

target: T8, TAX-IP2L PDZ-GST fusion protein; assay: A/G assays

binding result	Binder
no binding	Biotin-QGDPALQDAGDSSRKEYFI (also called GC) [Glycophorin C C-terminal peptide AA37L, biotinylated]
no binding	Biotin-SSKSKSSEESQTFFGLYKL (not fully specified, also called FasLigand; Fas ligand) [FasL C-terminal peptide AA23L-M, biotinylated]
no binding	B1
no binding	Biotin-QFMTADETRNLQNVDMKIGV (also called CD44 (long form)) [CD44 C-terminal peptide AA9L, biotinylated]

target: T9, GST-LIM protein PDZ domain fusion …; assay: A/G assays

binding result	Binder
no binding	Biotin-QGDPALQDAGDSSRKEYFI (also called GC) [Glycophorin C C-terminal peptide AA37L, biotinylated]
no binding	Biotin-SSKSKSSEESQTFFGLYKL (not fully specified, also called FasLigand; Fas ligand) [FasL C-terminal peptide AA23L-M, biotinylated]
no binding	B1
no binding	Biotin-QFMTADETRNLQNVDMKIGV (also called CD44 (long form)) [CD44 C-terminal peptide AA9L, biotinylated]

target: T14, NSP PDZ-GST fusion protein (Homo sapiens (Human), UniProt Q92743 370-466); assay: A/G assays
T14 construct: The label NSP is not explained in the excerpts
T14 sequence (Q92743 other isoform, or with tags, fused parts or gaps limits assumed): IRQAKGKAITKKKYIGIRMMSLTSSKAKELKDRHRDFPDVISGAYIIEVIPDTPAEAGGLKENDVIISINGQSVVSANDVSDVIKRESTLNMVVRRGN

binding result	Binder
no binding	Biotin-QGDPALQDAGDSSRKEYFI (also called GC) [Glycophorin C C-terminal peptide AA37L, biotinylated]
no binding	Biotin-SSKSKSSEESQTFFGLYKL (not fully specified, also called FasLigand; Fas ligand) [FasL C-terminal peptide AA23L-M, biotinylated]
no binding	B1
no binding	Biotin-QFMTADETRNLQNVDMKIGV (also called CD44 (long form)) [CD44 C-terminal peptide AA9L, biotinylated]

target: T15, NOS1 PDZ-GST fusion protein (Homo sapiens (Human), UniProt P29475 11-100); assay: A/G assays
T15 construct: Order of GST and PDZ part and limits not seen in the excerpts
T15 sequence (P29475 11-100 limits assumed): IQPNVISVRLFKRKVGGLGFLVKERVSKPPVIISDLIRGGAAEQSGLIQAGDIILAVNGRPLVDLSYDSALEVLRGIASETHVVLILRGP

binding result	Binder
no binding	Biotin-QGDPALQDAGDSSRKEYFI (also called GC) [Glycophorin C C-terminal peptide AA37L, biotinylated]
no binding	Biotin-SSKSKSSEESQTFFGLYKL (not fully specified, also called FasLigand; Fas ligand) [FasL C-terminal peptide AA23L-M, biotinylated]
no binding	B1
no binding	Biotin-QFMTADETRNLQNVDMKIGV (also called CD44 (long form)) [CD44 C-terminal peptide AA9L, biotinylated]

target: T10, GST-TAX-IP40 PDZ domain fusion protein; assay: A/G assays

binding result	Binder
no binding	Biotin-QGDPALQDAGDSSRKEYFI (also called GC) [Glycophorin C C-terminal peptide AA37L, biotinylated]
no binding	Biotin-SSKSKSSEESQTFFGLYKL (not fully specified, also called FasLigand; Fas ligand) [FasL C-terminal peptide AA23L-M, biotinylated]
no binding	B1
no binding	Biotin-QFMTADETRNLQNVDMKIGV (also called CD44 (long form)) [CD44 C-terminal peptide AA9L, biotinylated]

Target: T11, MINT3 PDZ-GST fusion protein
Assay: A/G assays

binding result	Binder
no binding	Biotin-QGDPALQDAGDSSRKEYFI (also called GC) [Glycophorin C C-terminal peptide AA37L, biotinylated]
no binding	Biotin-SSKSKSSEESQTFFGLYKL (not fully specified, also called FasLigand; Fas ligand) [FasL C-terminal peptide AA23L-M, biotinylated]
no binding	B1
no binding	Biotin-QFMTADETRNLQNVDMKIGV (also called CD44 (long form)) [CD44 C-terminal peptide AA9L, biotinylated]

target: T12, KIAA0807 (PDZ domain)-GST fusion protein; assay: A/G assays

binding result	Binder
no binding	Biotin-QGDPALQDAGDSSRKEYFI (also called GC) [Glycophorin C C-terminal peptide AA37L, biotinylated]
no binding	Biotin-SSKSKSSEESQTFFGLYKL (not fully specified, also called FasLigand; Fas ligand) [FasL C-terminal peptide AA23L-M, biotinylated]
no binding	B1
no binding	Biotin-QFMTADETRNLQNVDMKIGV (also called CD44 (long form)) [CD44 C-terminal peptide AA9L, biotinylated]
